Patent US8202695 (TUFTS UNIVERSITY, dated 2012)

Biological target: the molecule itself
Test: X-ray crystals of CodY grown with GTP, with isoleucine and valine, or without effectors

B1: Bacillus subtilis CodY protein (other, UniProt P39779 2-259, looked up)
chain: ALLQKTRIINSMLQAAAGKPVNFKEMAETLRDVIDSNIFVVSRRGKLLGYSINQQIENDRMKKMLEDRQFPEEYTKNLFNVPETSSNLDINSEYTAFPVENRDLFQAGLTTIVPIIGGGERLGTLILSRLQDQFNDDDLILAEYGATVVGMEILREKAEEIEEEARSKAVVQMAISSLSYSELEAIEHIFEELDGNEGLLVASKIADRVGITRSVIVNALRKLESAGVIESRSLGMKGTYIKVLNNKFLIELENLKSH
notes: For crystallization, B. subtilis CodY was overproduced in E. coli with a C-terminal or an N-terminal 6xHis tag; also called purified CodY protein
binding result: binds
